Measurements reported in the Human Domainome abundance scans (Beltran et al. 2025).
± gives the uncertainty stated by the source.

B1: Advillin, residues 785 to 819; numbered along this chain, O75366 (parent)
chain: LSEQDFVSVFGITRGQFAALPGWKQLQMKKEKGLF

Variants of: B1
Test: abundance fitness (aPCA) (normalised: wild type 0, dead -1); higher = more abundant; growth selection in yeast, the domain comes from the species named
Details: Homo sapiens

Variant	abundance fitness
LSEQDFVSVFGITRGQFAALPGWMQLQMKKEKGLF	-0.098 ± 0.12
LSEQDFVSVFGITRGQFAALPGWSQLQMKKEKGLF	-0.304 ± 0.097
LSEQDFVSVFGITRGQFAALPGWDQLQMKKEKGLF	-0.143 ± 0.1
LSEQDFVSVFGITRGQFAALPGWIQLQMKKEKGLF	-0.148 ± 0.14
LSEQDFVSVFGITRGQFAALPGWVQLQMKKEKGLF	-0.279 ± 0.12
LSEQDFVSVFGITRGQFAALPGWHQLQMKKEKGLF	-0.61 ± 0.34
LSEQDFVSVFGITRGQFAALPGWTQLQMKKEKGLF	-0.446 ± 0.3
LSEQDFVSVFGITRGQFAALPGWYQLQMKKEKGLF	-0.805 ± 0.49
LSEQDFVSVFGITRGQFAALPGWRQLQMKKEKGLF	-0.159 ± 0.066
LSEQDFVSVFGITRGQFAALPGWQQLQMKKEKGLF	-0.072 ± 0.086
LSEQDFVSVFGITRGQFAALPGWCQLQMKKEKGLF	-0.342 ± 0.11
LSEQDFVSVFGITRGQFAALPGWEQLQMKKEKGLF	-0.142 ± 0.097
LSEQDFVSVFGITRGQFAALPGWNQLQMKKEKGLF	-0.433 ± 0.23
LSEQDFVSVFGITRGQFAALPGWPQLQMKKEKGLF	-0.475 ± 0.12
LSEQDFVSVFGITRGQFAALPGWGQLQMKKEKGLF	-0.488 ± 0.089
LSEQDFVSVFGITRGQFAALPGWFQLQMKKEKGLF	-0.403 ± 0.16
LSEQDFVSVFGITRGQFAALPNWKQLQMKKEKGLF	-0.2 ± 0.11
LSEQDFVSVFGITRGQFAALPPWKQLQMKKEKGLF	0.067 ± 0.065
LSEQDFVSVFGITRGQFAALPYWKQLQMKKEKGLF	-0.093 ± 0.1
LSEQDFVSVFGITRGQFAALPWWKQLQMKKEKGLF	-0.405 ± 0.076
LSEQDFVSVFGITRGQFAALPAWKQLQMKKEKGLF	-0.016 ± 0.083
LSEQDFVSVFGITRGQFAALPFWKQLQMKKEKGLF	-0.138 ± 0.079
LSEQDFVSVFGITRGQFAALPRWKQLQMKKEKGLF	-0.099 ± 0.062
LSEQDFVSVFGITRGQFAALPTWKQLQMKKEKGLF	0.005 ± 0.086

Variant	abundance fitness
LSEQDFVSVFGITRGQFAALPVWKQLQMKKEKGLF	-0.021 ± 0.082
LSEQDFVSVFGITRGQFAALPLWKQLQMKKEKGLF	-0.074 ± 0.091
LSEQDFVSVFGITRGQFAALPKWKQLQMKKEKGLF	0.064 ± 0.073
LSEQDFVSVFGITRGQFAALPEWKQLQMKKEKGLF	0.069 ± 0.079
LSEQDFVSVFGITRGQFAALPIWKQLQMKKEKGLF	-0.162 ± 0.1
LSEQDFVSVFGITRGQFAALPMWKQLQMKKEKGLF	-0.084 ± 0.098
LSEQDFVSVFGITRGQFAALPCWKQLQMKKEKGLF	-0.44 ± 0.16
LSEQDFVSVFGITRGQFAALPSWKQLQMKKEKGLF	-0.108 ± 0.078
LSEQDFVSVFGITRGQFAALPHWKQLQMKKEKGLF	0.082 ± 0.15
LSEQDFVSVFGITRGQFAALPDWKQLQMKKEKGLF	-0.104 ± 0.14
LSEQDFVSVFGITRGQFAALPQWKQLQMKKEKGLF	0.01 ± 0.079
LSEQDFVSVFGITRGQFAALPGWKQLAMKKEKGLF	-0.125 ± 0.061
LSEQDFVSVFGITRGQFAALPGWKQLGMKKEKGLF	-0.333 ± 0.061
LSEQDFVSVFGITRGQFAALPGWKQLCMKKEKGLF	-0.432 ± 0.084
LSEQDFVSVFGITRGQFAALPGWKQLFMKKEKGLF	-0.416 ± 0.3
LSEQDFVSVFGITRGQFAALPGWKQLEMKKEKGLF	0.098 ± 0.075
LSEQDFVSVFGITRGQFAALPGWKQLDMKKEKGLF	-0.3 ± 0.21
LSEQDFVSVFGITRGQFAALFGWKQLQMKKEKGLF	-0.696 ± 0.21
LSEQDFVSVFGITRGQFAALHGWKQLQMKKEKGLF	-0.534 ± 0.085
LSEQDFVSVFGITRGQFAALYGWKQLQMKKEKGLF	-0.668 ± 0.11
LSEQDFVSVFGITRGQFAALEGWKQLQMKKEKGLF	-0.246 ± 0.057
LSEQDFVSVFGITRGQFAALNGWKQLQMKKEKGLF	-0.51 ± 0.23
LSEQDFVSVFGITRGQFAALKGWKQLQMKKEKGLF	-0.413 ± 0.095
LSEQDFVSVFGITRGQFAALLGWKQLQMKKEKGLF	-0.509 ± 0.064

Variant	abundance fitness
LSEQDFVSVFGITRGQFAALMGWKQLQMKKEKGLF	-0.64 ± 0.16
LSEQDFVSVFGITRGQFAALRGWKQLQMKKEKGLF	-0.614 ± 0.056
LSEQDFVSVFGITRGQFAALCGWKQLQMKKEKGLF	-0.436 ± 0.11
LSEQDFVSVFGITRGQFAALGGWKQLQMKKEKGLF	-0.32 ± 0.067
LSEQDFVSVFGITRGQFAALWGWKQLQMKKEKGLF	-0.617 ± 0.12
LSEQDFVSVFGITRGQFAALQGWKQLQMKKEKGLF	-0.271 ± 0.17
LSEQDFVSVFGITRGQFAALAGWKQLQMKKEKGLF	-0.414 ± 0.061
LSEQDFVSVFGITRGQFAALDGWKQLQMKKEKGLF	-0.54 ± 0.11
LSEQDFVSVFGITRGQFAALIGWKQLQMKKEKGLF	-0.536 ± 0.15
LSEQDFVSVFGITRGQFAALSGWKQLQMKKEKGLF	-0.225 ± 0.079
LSEQDFVSVFGITRGQFAALPGGKQLQMKKEKGLF	-0.238 ± 0.056
LSEQDFVSVFGITRGQFAALPGVKQLQMKKEKGLF	-0.11 ± 0.078
LSEQDFVSVFGITRGQFAALPGTKQLQMKKEKGLF	-0.228 ± 0.067
LSEQDFVSVFGITRGQFAALPGSKQLQMKKEKGLF	-0.092 ± 0.061
LSEQDFVSVFGITRGQFAALPGPKQLQMKKEKGLF	-0.188 ± 0.065
LSEQDFVSVFGITRGQFAALPGLKQLQMKKEKGLF	-0.233 ± 0.064
LSEQDFVSVFGITRGQFAALPGDKQLQMKKEKGLF	0.005 ± 0.098
LSEQDFVSVFGITRGQFAALPGEKQLQMKKEKGLF	0.081 ± 0.063
LSEQDFVSVFGITRGQFAALPGCKQLQMKKEKGLF	-0.235 ± 0.11
LSEQDFVSVFGITRGQFAALPGHKQLQMKKEKGLF	-0.101 ± 0.086
LSEQDFVSVFGITRGQFAALPGYKQLQMKKEKGLF	-0.211 ± 0.14
LSEQDFVSVFGITRGQFAALPGFKQLQMKKEKGLF	-0.22 ± 0.19
LSEQDFVSVFGITRGQFAALPGNKQLQMKKEKGLF	-0.319 ± 0.09
LSEQDFVSVFGITRGQFAALPGIKQLQMKKEKGLF	-0.284 ± 0.1

Variant	abundance fitness
LSEQDFVSVFGITRGQFAALPGRKQLQMKKEKGLF	-0.202 ± 0.058
LSEQDFVSVFGITRGQFAALPGKKQLQMKKEKGLF	-0.042 ± 0.077
LSEQDFVSVFGITRGQFAALPGMKQLQMKKEKGLF	-0.108 ± 0.14
LSEQDFVSVFGITRGQFAALPGAKQLQMKKEKGLF	-0.134 ± 0.062
LSEQDFVSVFGITRGQFAALPGQKQLQMKKEKGLF	-0.213 ± 0.093
LSEQDFVSVFGITRGQFAAQPGWKQLQMKKEKGLF	-0.368 ± 0.1
LSEQDFVSVFGITRGQFAAAPGWKQLQMKKEKGLF	-0.593 ± 0.077
LSEQDFVSVFGITRGQFAAYPGWKQLQMKKEKGLF	-0.106 ± 0.19
LSEQDFVSVFGITRGQFAADPGWKQLQMKKEKGLF	-0.113 ± 0.16
LSEQDFVSVFGITRGQFAAPPGWKQLQMKKEKGLF	-0.759 ± 0.12
LSEQDFVSVFGITRGQFAAFPGWKQLQMKKEKGLF	-0.832 ± 0.18
LSEQDFVSVFGITRGQFAAHPGWKQLQMKKEKGLF	-0.487 ± 0.1
LSEQDFVSVFGITRGQFAATPGWKQLQMKKEKGLF	-0.424 ± 0.079
LSEQDFVSVFGITRGQFAAMPGWKQLQMKKEKGLF	-0.211 ± 0.056
LSEQDFVSVFGITRGQFAANPGWKQLQMKKEKGLF	-0.248 ± 0.21
LSEQDFVSVFGITRGQFAAKPGWKQLQMKKEKGLF	-0.639 ± 0.099
LSEQDFVSVFGITRGQFAAIPGWKQLQMKKEKGLF	-0.902 ± 0.31
LSEQDFVSVFGITRGQFAAGPGWKQLQMKKEKGLF	-0.408 ± 0.076
LSEQDFVSVFGITRGQFAAVPGWKQLQMKKEKGLF	-0.753 ± 0.11
LSEQDFVSVFGITRGQFAAWPGWKQLQMKKEKGLF	-0.91 ± 0.16
LSEQDFVSVFGITRGQFAARPGWKQLQMKKEKGLF	-0.563 ± 0.059
LSEQDFVSVFGITRGQFAAEPGWKQLQMKKEKGLF	-0.404 ± 0.09
LSEQDFVSVFGITRGQFAACPGWKQLQMKKEKGLF	-0.847 ± 0.11
LSEQDFVSVFGITRGQFAASPGWKQLQMKKEKGLF	-0.328 ± 0.062

Variant	abundance fitness
LSEQDFVSVFGITRGQFAALPGWKKLQMKKEKGLF	-0.31 ± 0.081
LSEQDFVSVFGITRGQFAALPGWKGLQMKKEKGLF	-0.568 ± 0.073
LSEQDFVSVFGITRGQFAALPGWKVLQMKKEKGLF	-0.604 ± 0.11
LSEQDFVSVFGITRGQFAALPGWKRLQMKKEKGLF	-0.187 ± 0.07
LSEQDFVSVFGITRGQFAALPGWKWLQMKKEKGLF	-1.4 ± 0.15
LSEQDFVSVFGITRGQFAALPGWKNLQMKKEKGLF	-0.407 ± 0.12
LSEQDFVSVFGITRGQFAALPGWKELQMKKEKGLF	-0.593 ± 0.069
LSEQDFVSVFGITRGQFAALPGWKALQMKKEKGLF	-0.525 ± 0.066
LSEQDFVSVFGITRGQFAALPGWKLLQMKKEKGLF	-0.456 ± 0.074
LSEQDFVSVFGITRGQFAALPGWKSLQMKKEKGLF	-0.735 ± 0.14
LSEQDFVSVFGITRGQFAALPGWKCLQMKKEKGLF	-0.846 ± 0.17
LSEQDFVSVFGITRGQFAALPGWKMLQMKKEKGLF	-0.507 ± 0.12
LSEQDFVSVFGITRGQFAALPGWKTLQMKKEKGLF	-0.405 ± 0.15
LSEQDFVSVFGITRGQFAALPGWKQIQMKKEKGLF	-0.181 ± 0.16
LSEQDFVSVFGITRGQFAALPGWKQKQMKKEKGLF	0.068 ± 0.089
LSEQDFVSVFGITRGQFAALPGWKQPQMKKEKGLF	-0.914 ± 0.18
LSEQDFVSVFGITRGQFAALPGWKQFQMKKEKGLF	-0.185 ± 0.15
LSEQDFVSVFGITRGQFAALPGWKQQQMKKEKGLF	0.12 ± 0.11
LSEQDFVSVFGITRGQFAALPGWKQVQMKKEKGLF	0.073 ± 0.057
LSEQDFVSVFGITRGQFAALPGWKQRQMKKEKGLF	-0.033 ± 0.058
LSEQDFVSVFGITRGQFAALPGWKQDQMKKEKGLF	-0.01 ± 0.083
LSEQDFVSVFGITRGQFAALPGWKQSQMKKEKGLF	0.069 ± 0.07
LSEQDFVSVFGITRGQFAALPGWKQMQMKKEKGLF	-0.114 ± 0.063
LSEQDFVSVFGITRGQFAALPGWKQCQMKKEKGLF	-0.606 ± 0.089

Variant	abundance fitness
LSEQDFVSVFGITRGQFAALPGWKQAQMKKEKGLF	0.034 ± 0.063
LSEQDFVSVFGITRGQFAALPGWKQYQMKKEKGLF	-0.174 ± 0.15
LSEQDFVSVFGITRGQFAALPGWKQGQMKKEKGLF	-0.146 ± 0.067
LSEQDFVSVFGITRGQFAALPGWKQTQMKKEKGLF	-0.075 ± 0.064
LSEQDFVSVFGITRGQFAALPGWKQHQMKKEKGLF	-0.132 ± 0.14
LSEQDFVSVFGITRGQFADLPGWKQLQMKKEKGLF	-0.068 ± 0.13
LSEQDFVSVFGITRGQFAYLPGWKQLQMKKEKGLF	-0.409 ± 0.12
LSEQDFVSVFGITRGQFATLPGWKQLQMKKEKGLF	-0.254 ± 0.069
LSEQDFVSVFGITRGQFAQLPGWKQLQMKKEKGLF	-0.367 ± 0.14
LSEQDFVSVFGITRGQFAFLPGWKQLQMKKEKGLF	-0.245 ± 0.26
LSEQDFVSVFGITRGQFASLPGWKQLQMKKEKGLF	-0.068 ± 0.078
LSEQDFVSVFGITRGQFAPLPGWKQLQMKKEKGLF	-0.749 ± 0.11
LSEQDFVSVFGITRGQFANLPGWKQLQMKKEKGLF	-0.052 ± 0.18
LSEQDFVSVFGITRGQFAHLPGWKQLQMKKEKGLF	-0.119 ± 0.11
LSEQDFVSVFGITRGQFAILPGWKQLQMKKEKGLF	-0.5 ± 0.35
LSEQDFVSVFGITRGQFAELPGWKQLQMKKEKGLF	0.021 ± 0.063
LSEQDFVSVFGITRGQFAWLPGWKQLQMKKEKGLF	-0.654 ± 0.096
LSEQDFVSVFGITRGQFALLPGWKQLQMKKEKGLF	-0.137 ± 0.082
LSEQDFVSVFGITRGQFAGLPGWKQLQMKKEKGLF	-0.114 ± 0.055
LSEQDFVSVFGITRGQFAMLPGWKQLQMKKEKGLF	-0.174 ± 0.096
